Laboratory results reported in publication PMC12572689, “Characterization of the Specific Binding Between Aptamers and Cytochrome c With Pressure‐Assisted Capillary Electrophoresis Frontal Analysis”.

Assays:
cytochrome c [1] = target: T1, cytochrome c (Equus caballus (equine heart), UniProt P00004 2-105); assay: PACE-FA; raw data, uncorrected; n=1.06; 10 mM NH4OAc pH 6.8 (fluorescence: 2.0 uM cyt c, 2.0-14.0 uM aptamer, 30 min); PACE-FA: NH4OAc pH 6.8, HPC-coated capillary; temperature not stated; details: protein: commercial; tags: none
T1 sequence (P00004 2-105): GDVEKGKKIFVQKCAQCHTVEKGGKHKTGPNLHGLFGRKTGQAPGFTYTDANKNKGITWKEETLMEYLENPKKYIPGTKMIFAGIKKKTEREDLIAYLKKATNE

cytochrome c [2] = target: T1, cytochrome c; assay: PACE-FA; specific binding fit; n=0.84; lambda 2.83e4 M-1; 10 mM NH4OAc pH 6.8 (fluorescence: 2.0 uM cyt c, 2.0-14.0 uM aptamer, 30 min); PACE-FA: NH4OAc pH 6.8, HPC-coated capillary; temperature not stated; details: protein: commercial; tags: none
cytochrome c [3] = target: T1, cytochrome c; assay: fluorescence titration; cyt c emission at 292 nm; Benesi-Hildebrand; 10 mM NH4OAc pH 6.8 (fluorescence: 2.0 uM cyt c, 2.0-14.0 uM aptamer, 30 min); PACE-FA: NH4OAc pH 6.8, HPC-coated capillary; temperature not stated; details: protein: commercial, tags: none
cytochrome c [4] = target: T1, cytochrome c; assay: PACE-FA; mobility correction; n=1.10; 10 mM NH4OAc pH 6.8 (fluorescence: 2.0 uM cyt c, 2.0-14.0 uM aptamer, 30 min); PACE-FA: NH4OAc pH 6.8, HPC-coated capillary; temperature not stated; details: protein: commercial; tags: none
cytochrome c [5] = target: T1, cytochrome c; assay: PACE-FA; specific binding fit; n=1.22; lambda 7.11e3 M-1; 10 mM NH4OAc pH 6.8 (fluorescence: 2.0 uM cyt c, 2.0-14.0 uM aptamer, 30 min); PACE-FA: NH4OAc pH 6.8, HPC-coated capillary; temperature not stated; details: protein: commercial; tags: none
cytochrome c [6] = target: T1, cytochrome c; assay: PACE-FA; mobility correction; n=1.30; 10 mM NH4OAc pH 6.8 (fluorescence: 2.0 uM cyt c, 2.0-14.0 uM aptamer, 30 min); PACE-FA: NH4OAc pH 6.8, HPC-coated capillary; temperature not stated; details: protein: commercial; tags: none
cytochrome c [7] = target: T1, cytochrome c; assay: PACE-FA; raw data, uncorrected; n=1.47; 10 mM NH4OAc pH 6.8 (fluorescence: 2.0 uM cyt c, 2.0-14.0 uM aptamer, 30 min); PACE-FA: NH4OAc pH 6.8, HPC-coated capillary; temperature not stated; details: protein: commercial; tags: none
cytochrome c [8] = target: T1, cytochrome c; assay: PACE-FA; raw data, uncorrected; n=2.05; 10 mM NH4OAc pH 6.8 (fluorescence: 2.0 uM cyt c, 2.0-14.0 uM aptamer, 30 min); PACE-FA: NH4OAc pH 6.8, HPC-coated capillary; temperature not stated; details: protein: commercial; tags: none; multi-loop structure (as claimed in text)
cytochrome c [9] = target: T1, cytochrome c; assay: PACE-FA; specific binding fit; n=1.25; lambda 6.90e4 M-1; 10 mM NH4OAc pH 6.8 (fluorescence: 2.0 uM cyt c, 2.0-14.0 uM aptamer, 30 min); PACE-FA: NH4OAc pH 6.8, HPC-coated capillary; temperature not stated; details: protein: commercial; tags: none; multi-loop structure (as claimed in text)
cytochrome c [10] = target: T1, cytochrome c; assay: PACE-FA; mobility correction; n=1.85; 10 mM NH4OAc pH 6.8 (fluorescence: 2.0 uM cyt c, 2.0-14.0 uM aptamer, 30 min); PACE-FA: NH4OAc pH 6.8, HPC-coated capillary; temperature not stated; details: protein: commercial; tags: none; multi-loop structure (as claimed in text)

Row | Binder | Ka (cytochrome c [1]) | Ka (cytochrome c [2]) | Ka (cytochrome c [3]) | Ka (cytochrome c [4]) | Ka (cytochrome c [5]) | Ka (cytochrome c [6]) | Ka (cytochrome c [7]) | Ka (cytochrome c [8]) | Ka (cytochrome c [3]; multi-loop structure (as claimed in text)) | Ka (cytochrome c [9]) | Ka (cytochrome c [10])
1 | CCGTGTCTGGGGCCGACCGGCGCATTGGGTACGTTGTTGC (ssDNA) [Apt40] | 2.01e+06 M⁻¹ | 840000 M⁻¹ | 151000 M⁻¹ | 545000 M⁻¹ | – | – | – | – | – | – | –
2 | Apt61 (ssDNA) DNA: AGTGTGAAATATCTAAACTAAATGTGGAGGGTGGGACGGGAAGAAGTTTATTTTTCACACT | – | – | 625000 M⁻¹ | – | 712000 M⁻¹ | 643000 M⁻¹ | 1.06e+06 M⁻¹ | – | – | – | –
3 | Apt76 (ssDNA) DNA: ATCGATAAGCTTCCAGAGCCGTGTCTGGGGCCGACCGGCGCATTGGGTACGTTGTTGCCGTAGAATTCCTGCAGCC | – | – | – | – | – | – | – | 1.65e+06 M⁻¹ | 868000 M⁻¹ | 1.53e+06 M⁻¹ | 676000 M⁻¹
